Test results published in US20160250307A1 (IMMATICS BIOTECHNOLOGIES, published 2016).
Square brackets hold non-standard residues; d marks the D form. Ends that are not written are not given here. pS = N[C@@H](COP(=O)(O)O)C(=O)O

Molecular target: HLA-A*02 (human)
Experiment: UV-ligand exchange, anti-b2m ELISA; grade: exchange yield >=50%

Q: For SLLNFLQHL, which peptide exchange yield is on record?
A: The peptide exchange yield was 50 to 75%.

Q: YQMDIQQEL was tested. Which peptide exchange yield did it give?
A: Its peptide exchange yield is 50 to 75%.

Q: For KMFESFIESV, which peptide exchange yield is on record?
A: Its peptide exchange yield is 50 to 75%.

Q: Which peptide exchange yield does the source give for SLAEGTATV here?
A: Its peptide exchange yield is 50 to 75%.

Q: For YLLHFPMAL, which peptide exchange yield is on record?
A: The peptide exchange yield was 50 to 75%.

Q: ALYGKTEVV was tested. Which peptide exchange yield did it give?
A: The peptide exchange yield was 50 to 75%.

Q: For ALLGGNVRMML, which peptide exchange yield is on record?
A: Its peptide exchange yield is 50 to 75%.

Q: ALLEENSTPQL was tested. Which peptide exchange yield did it give?
A: The peptide exchange yield was 50 to 75%.

Q: Which peptide exchange yield does the source give for SLDGKAALTEL here?
A: Its peptide exchange yield is 50 to 75%.

Q: Which peptide exchange yield does the source give for ALLRVTPFI here?
A: The peptide exchange yield was 50 to 75%.

Q: How did the peptide exchange yield turn out when TLMDMRLSQV was run?
A: The peptide exchange yield was 50 to 75%.

Q: With ILDDNMQKL as the binder, how does the peptide exchange yield read?
A: The peptide exchange yield was 50 to 75%.

Q: How did the peptide exchange yield turn out when ALADKELLPSV was run?
A: The peptide exchange yield was 50 to 75%.

Q: With SLFGQDVKAV as the binder, how does the peptide exchange yield read?
A: The peptide exchange yield was 50 to 75%.

Q: How did the peptide exchange yield turn out when RLYDPASGTISL was run?
A: Its peptide exchange yield is 50 to 75%.

Q: With FLWERPTLLV as the binder, how does the peptide exchange yield read?
A: The peptide exchange yield was 50 to 75%.

Q: For RVA[pS]PTSGV (phosphopeptide from IRS2) [RVAS*PTSGV], which peptide exchange yield is on record?
A: The peptide exchange yield was 50 to 75%.

Q: How did the peptide exchange yield turn out when ALADVVHEA was run?
A: Its peptide exchange yield is 50 to 75%.

Q: With TLAELGAVQV as the binder, how does the peptide exchange yield read?
A: The peptide exchange yield was 50 to 75%.

Q: QQLDSKFLEQV was tested. Which peptide exchange yield did it give?
A: The peptide exchange yield was 50 to 75%.

Q: For QLIDYERQL, which peptide exchange yield is on record?
A: Its peptide exchange yield is 50 to 75%.

Q: SLLHTIYEV was tested. Which peptide exchange yield did it give?
A: Its peptide exchange yield is 50 to 75%.

Q: For AMAEMKVVL, which peptide exchange yield is on record?
A: The peptide exchange yield was 50 to 75%.

Q: With VLPNFLPYNV as the binder, how does the peptide exchange yield read?
A: The peptide exchange yield was 50 to 75%.

Q: How did the peptide exchange yield turn out when FLLEQPEIQV was run?
A: Its peptide exchange yield is 50 to 75%.

Q: ALDPKANFST was tested. Which peptide exchange yield did it give?
A: The peptide exchange yield was 50 to 75%.

Q: How did the peptide exchange yield turn out when SLLSGRISTL was run?
A: The peptide exchange yield was 50 to 75%.

Q: FLLGFIPAKA was tested. Which peptide exchange yield did it give?
A: The peptide exchange yield was 50 to 75%.

Q: KLDAFVEGV was tested. Which peptide exchange yield did it give?
A: Its peptide exchange yield is 50 to 75%.

Q: For FLEETKATV, which peptide exchange yield is on record?
A: The peptide exchange yield was 50 to 75%.

Q: For SLAEEKLQASV, which peptide exchange yield is on record?
A: Its peptide exchange yield is 50 to 75%.

Q: For YLLEKFVAV, which peptide exchange yield is on record?
A: Its peptide exchange yield is 50 to 75%.

Q: With ALIEGAGILL as the binder, how does the peptide exchange yield read?
A: The peptide exchange yield was 50 to 75%.

Q: For YLGPHIASVTL, which peptide exchange yield is on record?
A: The peptide exchange yield was 50 to 75%.

Q: GLFNAELLEA was tested. Which peptide exchange yield did it give?
A: Its peptide exchange yield is 50 to 75%.

Q: How did the peptide exchange yield turn out when TLFEHLPHI was run?
A: The peptide exchange yield was 50 to 75%.

Q: Which peptide exchange yield does the source give for GLLDNPELRV here?
A: The peptide exchange yield was 50 to 75%.

Q: Which peptide exchange yield does the source give for LLHGHIVEL here?
A: The peptide exchange yield was 50 to 75%.

Q: How did the peptide exchange yield turn out when TLFYSLREV was run?
A: The peptide exchange yield was 50 to 75%.

Q: For YIQDEINTI, which peptide exchange yield is on record?
A: Its peptide exchange yield is 50 to 75%.

Q: How did the peptide exchange yield turn out when ALANQKLYSV was run?
A: Its peptide exchange yield is 50 to 75%.

Q: Which peptide exchange yield does the source give for YLMEGSYNKV here?
A: Its peptide exchange yield is 50 to 75%.

Q: With SLLESNKDLLL as the binder, how does the peptide exchange yield read?
A: The peptide exchange yield was 50 to 75%.

Q: ALFPALRPGGFQA was tested. Which peptide exchange yield did it give?
A: Its peptide exchange yield is 50 to 75%.

Q: Which peptide exchange yield does the source give for VLFQEALWHV here?
A: Its peptide exchange yield is 50 to 75%.

Q: For VLLAQIIQV, which peptide exchange yield is on record?
A: Its peptide exchange yield is 50 to 75%.

Q: Which peptide exchange yield does the source give for VLYPSLKEI here?
A: The peptide exchange yield was 50 to 75%.

Q: How did the peptide exchange yield turn out when KLLDLSDSTSV was run?
A: Its peptide exchange yield is 50 to 75%.

Q: Which peptide exchange yield does the source give for SLLEKAGPEL here?
A: The peptide exchange yield was 50 to 75%.

Q: Which peptide exchange yield does the source give for ALLAEGITWV here?
A: Its peptide exchange yield is 50 to 75%.

Q: How did the peptide exchange yield turn out when KLNDLIQRL was run?
A: The peptide exchange yield was 50 to 75%.

Q: With ALNENINQV as the binder, how does the peptide exchange yield read?
A: Its peptide exchange yield is 50 to 75%.

Q: Which peptide exchange yield does the source give for RTIEYLEEV here?
A: The peptide exchange yield was 50 to 75%.

Q: How did the peptide exchange yield turn out when SVLDQKILL was run?
A: The peptide exchange yield was 50 to 75%.

Q: How did the peptide exchange yield turn out when LLLPLLPPLSP was run?
A: Its peptide exchange yield is 50 to 75%.

Q: With YIFTTPKSV as the binder, how does the peptide exchange yield read?
A: The peptide exchange yield was 50 to 75%.

Q: For ALRGEIETV, which peptide exchange yield is on record?
A: Its peptide exchange yield is 50 to 75%.

Q: SLFSSPPEI was tested. Which peptide exchange yield did it give?
A: Its peptide exchange yield is 50 to 75%.

Q: With VVLDGGQIVTV as the binder, how does the peptide exchange yield read?
A: Its peptide exchange yield is 50 to 75%.

Q: Which peptide exchange yield does the source give for SLFQGVEFHYV here?
A: Its peptide exchange yield is 50 to 75%.

Q: Which peptide exchange yield does the source give for YLGEGPRMV here?
A: The peptide exchange yield was 50 to 75%.

Q: For RVQEAIAEV, which peptide exchange yield is on record?
A: Its peptide exchange yield is 50 to 75%.

Q: Which peptide exchange yield does the source give for ATLNIIHSV here?
A: Its peptide exchange yield is 50 to 75%.

Q: For LLDDSLVSI, which peptide exchange yield is on record?
A: Its peptide exchange yield is 50 to 75%.

Q: With ILSGIGVSQV as the binder, how does the peptide exchange yield read?
A: The peptide exchange yield was 50 to 75%.

Q: With AILETAPKEV as the binder, how does the peptide exchange yield read?
A: The peptide exchange yield was 50 to 75%.

Q: TLQDHLNSL was tested. Which peptide exchange yield did it give?
A: The peptide exchange yield was 50 to 75%.

Q: Which peptide exchange yield does the source give for ILNVDGLIGV here?
A: Its peptide exchange yield is 50 to 75%.

Q: How did the peptide exchange yield turn out when KLISSYYNV was run?
A: The peptide exchange yield was 50 to 75%.

Q: For SLMGPVVHEV, which peptide exchange yield is on record?
A: The peptide exchange yield was 50 to 75%.

Q: With GLFAPVHKV as the binder, how does the peptide exchange yield read?
A: Its peptide exchange yield is 50 to 75%.

Q: GLLAGDRLVEV was tested. Which peptide exchange yield did it give?
A: The peptide exchange yield was 50 to 75%.

Q: With SLQESILAQV as the binder, how does the peptide exchange yield read?
A: The peptide exchange yield was 50 to 75%.

Q: GQFPSYLETV was tested. Which peptide exchange yield did it give?
A: The peptide exchange yield was 50 to 75%.

Q: Which peptide exchange yield does the source give for VLDEPYEKV here?
A: Its peptide exchange yield is 50 to 75%.
